The assay has as its target Archeoglobus fulgidus HypB (A. fulgidus). As to the kind of experiment: SEC-MALS; SEC/LS, Superdex-75 HR10/30, 100 uL at 3 mg/mL, with 1 mM GMPPNP (GTP analog), 50 mM Tris pH 7.5, 0.1 M NaCl, 5 mM MgCl2, 1 mM TCEP, room temperature; monomer to dimer.

“Archeoglobus fulgidus HypB (natural protein)” showed a stoichiometry N of 2.

(Values after publication PMC3262836.)
